From PMC5066087, “In Vitro Bioconversion of Pyruvate to n-Butanol with Minimized Cofactor Utilization” (Frontiers in Bioengineering and Biotechnology, 2016) come the findings set out here.

Substrate in data set [1]: CC=O
The experiment in a line: purified protein. It is filed as biochemical, Geobacillus stearothermophilus. Conditions: 0.3 mM NADH, 2.5 mM MgSO4, 100 mM HEPES pH 7, 50°C, acetaldehyde 0.01–0.14 mM.

Substrate in data set [2]: CCCC=O
The experiment in a line: purified protein. In kind it is biochemical, Geobacillus stearothermophilus. To be noted: 0.3 mM NADH, 2.5 mM MgSO4, 100 mM HEPES pH 7, 50°C, butyraldehyde 0.8–3 mM.

B1: ADH (ADH-HT) (Geobacillus stearothermophilus) (protein)
chain: MKAAVVEQFKEPLKIKEVEKPTISYGEVLVRIKACGVCHTDLHAAHGDWPVKPKLPLIPGHEGVGIVEEVGPGVTHLKVGDRVGIPWLYSACGHCDYCLSGQETLCEHQKNAGYSVDGGYAEYCRAAADYVVKIPDNLSFEEAAPIFCAGVTTYKALKVTGAKPGEWVAIYGIGGLGHVAVQYAKAMGLNVVAVDIGDEKLELAKELGADLVVNPLKEDAAKFMKEKVGGVHAAVVTAVSKPAFQSAYNSIRRGGACVLVGLPPEEMPIPIFDTVLNGIKIIGSIVGTRKDLQEALQFAAEGKVKTIIEVQPLEKINEVFDRMLKGQINGRVVLTLEDK
notes: codon-optimised synthetic gene in pET-22b (NdeI/XhoI), C-terminal His-tag, expressed in E. coli, IMAC purified
B1: the Michaelis constant (Km) in the data set “purified protein [1]” worked out at 65 ± 5 µM; in the data set “purified protein [2]”, 1430 ± 160 µM. In addition, the turnover number (kcat) in “purified protein [1]” was found to be 141.44 ± 14.52 s⁻¹; in “purified protein [2]” it was 49.16 ± 3.8 s⁻¹.
